Measured values from publication PMC11962161.

Assays:
[1] = molecular target: FCA-mScarlet-I (Arabidopsis thaliana); experiment: single-particle tracking with stepwise photobleaching (SlimVar microscopy); fluorescent FCA fusions in nuclei of living Arabidopsis root tissue, 10 ms/frame; molecules per tracked particle from initial intensity over single-molecule brightness; control and sof78 backgrounds for FCA-eGFP
[2] = molecular target: MBP-PrLD (purified recombinant FCA C-terminal half containing prion-like domains) (Arabidopsis); experiment: SEC-MALS; Superdex-200 10/300 GL, 40 mM Tris-HCl pH 7.4, 500 mM NaCl; protein at 2 mg/mL; self-association

stoichiometry N [1] [molecules] | Substance | stoichiometry N [2] [molecules]
4 | FCA-mScarlet-I (natural protein) | –
– | MBP-PrLD (purified recombinant FCA C-terminal half containing prion-like domains) (domain or fragment) | > 100
